System: O=C[C@H](O)COP(=O)(O)O
Assay: Coupled alpha-glycerol-3-phosphate dehydrogenase assay following NADH decrease at 340 nm at 25°C in 100 mM triethanolamine/10 mM EDTA, pH 7.4, with 0.2 mM NADH and GAP varied from 0.3 to 3 mM, fitted to the Michaelis-Menten equation by non-linear regression.
Format: biochemical
Protocol: Glyceraldehyde 3-phosphate (GAP), buffers, salts and all the other analytical grade reagents were acquired from Sigma–Aldrich; α-glycerol-3-phosphate dehydrogenase (α-GDH) was from Roche, crystallization screen kits were obtained from Hampton Research. Restriction enzymes, DNA polymerase and T4 DNA ligase were purchased from New England BioLabs and Invitrogene. Oligonucleotide synthesis and DNA sequencing was performed at the Unidad de Biología Molecular, Instituto de Fisiología Celular, UNAM. Protein concentration was determined by the bicinchoninic acid method or by absorbance at 280 nm for pure GlTIM (ε280 = 26600 M^-1cm^-1). The TIM activity was determined at 25°C by a coupled assay, following the decrease in absorbance at 340 nm. The standard reaction mixture contained 100 mM triethanolamine/10 mM EDTA, pH 7.4 (TE buffer), 1 mM GAP, 0.2 mM NADH, and 0.9 units of α-GDH (20 μg/mL); the reaction was initiated by addition of 5 ng/mL of WT, C222V or C222M GlTIM, 10 ng/mL of C222N, 20 ng/mL of C222D or C222F, and 200 ng/mL of C222K. Kinetic, binding and stability data were analyzed by non-linear regression calculations with Origin software.
Determination of Km and Vmax was performed by fitting initial velocity data at GAP concentrations ranging from 0.3 to 3 mM to the Michaelis-Menten equation (v = Vmax•S/Km+S) by non-linear regression calculations. The kcat was derived from Vmax by considering a molecular mass for the monomer of 27.7 kDa. The Ki for 2-phosphoglycolate (2-PG) was calculated by global fit of initial velocity curves (GAP from 0.3 to 3 mM) obtained at different fixed concentrations of the inhibitor. Prior to fitting collectively the data to the simple competitive inhibition equation (v = Vmax•S/Km(1+I/Ki)+S), individual data were plotted as double reciprocal plots to confirm competitive inhibition.

| Substance | Km | Vmax | kcat |
| --- | --- | --- | --- |
| C222D (Giardia duodenalis; C222D) | 4880 ± 810 µM | 3720 µmol/min/mg | 3330 s⁻¹ |
| C222F (Giardia duodenalis; C222F) | 3900 ± 460 µM | 1660 µmol/min/mg | 1500 s⁻¹ |
| C222K (Giardia duodenalis; C222K) | 3100 ± 640 µM | 255 µmol/min/mg | 217 s⁻¹ |
| C222M (Giardia duodenalis; C222M) | 1850 ± 460 µM | 3100 µmol/min/mg | 2800 s⁻¹ |
| C222N (Giardia duodenalis; C222N) | 2790 ± 730 µM | 3650 µmol/min/mg | 3320 s⁻¹ |
| C222V (Giardia duodenalis; C222V) | 960 ± 120 µM | 9560 µmol/min/mg | 8670 s⁻¹ |
